Values of other authors as cited in patent publication US20150056205A1, “STEROID SPARING AGENTS AND METHODS OF USING SAME” (BIOGEN IDEC MA INC., priority 2004, published 2015).

What was measured:
α4 subunit of VLA-4 = target: T1, α4 subunit of VLA-4 (Homo sapiens, UniProt P13612); details: rat brain cells stimulated with tumor necrosis factor; cited from earlier work
T1 construct: endogenous in cells; host or cells: human lymphocytes (adhering to TNF-stimulated rat brain cell cultures)

VLA-4 = VLA-4 (Homo sapiens, UniProt P13612); details: cited from earlier work

B1: mu MAb 21.6: mouse monoclonal antibody specific for the α4 subunit of VLA-4; donor immunoglobulin for the humanized antibodies (antibody, V domains shown)
VH: MKCSWVMFFLMAVVTGVNSEVQLQQSGAELVKPGASVKLSCTASGFNIKDTYIHCVKQRPEQGLEWIGRIDPANGYTKYDPKFQGKATITADTSSNTAYLQLSSLTSEDTAVYFCAREGYYGNYGVYAMDYWGQGTSVTV
VL: DIQMTQSPSSLSASLGGKVTITCKTSQDINKYMAWYQHKPGKRPRLLIHYTSALQPGIPSRFSGSGSGRDYSFNISNLEPEDIATYYCLQYDNLWTFGGGTKLEIK
inhibition of human lymphocyte binding to tissue cultures of rat brain cells (α4 subunit of VLA-4): inhibit human lymphocyte binding
binding affinity for VLA-4 (VLA-4): about 10^9 M^−1
